The source of these data is patent US20030022355A1.

This assay has as its target fiber receptor (cellular receptor for wild-type adenoviral fiber protein). The assay is described as follows: competition on A549 cells; labelled competitor GV10 UTV; soluble fiber at 0 to about 10 ug/ml.

Turning to soluble wild-type fiber protein, the percent of GV10 UTV binding inhibited came to 40%.
